B1: CheBC, catalytic domain of E. coli CheB lacking the regulatory domain and linker (domain or fragment)
chain: LSSEKLIAIGASTGGTEAIRHVLQPLPLSSPALLITQHMPPGFTRSFADRLNKLCQIGVKEAEDGERVLPGHAYIAPGDRHMELSRSGANYQIKIHDGPAVNRHRPSVDVLFHSVAKQAGRNAVGVILTGMGNDGAAGMLAMRQAGAWTLAQNEASCVVFGMPREAINMGGVCEVVDLSQVSQQMLAKISAGQAIRI
B2: methylesterase/deamidase CheB from E. coli, low-activity, unphosphorylated form (enzyme, UniProt P07330 1-349, looked up)
chain: MSKIRVLSVDDSALMRQIMTEIINSHSDMEMVATAPDPLVARDLIKKFNPDVLTLDVEMPRMDGLDFLEKLMRLRPMPVVMVSSLTGKGSEVTLRALELGAIDFVTKPQLGIREGMLAYNEMIAEKVRTAAKASLAAHKPLSAPTTLKAGPLLSSEKLIAIGASTGGTEAIRHVLQPLPLSSPALLITQHMPPGFTRSFADRLNKLCQIGVKEAEDGERVLPGHAYIAPGDRHMELSRSGANYQIKIHDGPAVNRHRPSVDVLFHSVAKQAGRNAVGVILTGMGNDGAAGMLAMRQAGAWTLAQNEASCVVFGMPREAINMGGVCEVVDLSQVSQQMLAKISAGQAIRI
notes: CheB methylesterase/deamidase of E. coli, unphosphorylated, from plasmid pCW/cheB; measured with 2 mM DTT in the buffer; also called low-activity CheB; unmodified CheB; source: E. coli K-12 RP3098 with pCW/cheB, purified

Experiments:
[1] = system: Tar4E and Tar4Q with or without pentapeptide; test: CheBC binding to pentapeptide-bearing and pentapeptide-lacking Tar (biolayer interferometry); set-up: species or system E. coli
Description: (§1) We determined the kinetics of association and dissociation of methylesterase/deamidase CheB in its low- and high-activity form with the E. coli aspartate chemoreceptor Tar using biolayer interferometry ([22], [23]) and isolated receptor homodimers in Nanodiscs ([24], [25]). Apparent rate constants of association and dissociation were derived from global fits of time courses for binding and release (see Fig. S1 in the supplemental material). Equilibrium dissociation constants were calculated from those apparent rate constants.
E. coli CheB and Salmonella CheB D56C/C207S/C309S and D56C/S164A/C207S/C309S were purified as described previously ([11]). CheBC (amino acids [aa] 153 to 349) was purified using the procedure of West et al. ([40]), except that Bio-Gel P-60, was not used. CheB D56C/C207S/C309S and CheB D56C/S164A/C207S/C309S were modified to create a disulfide-linked phosphoryl group on D56C following the procedure described in reference but using a 10-fold molar excess of DTNB [Ellman’s reagent, 5,5′-disulfanediylbis(2-nitrobenzoic acid)] rather than 90-fold and a 50-fold molar excess Na3SPO3 rather than 1,000-fold. The extent of modification was 59% for the former and 60% for the latter determined by reversed phase chromatography essentially as described previously ([26]) and confirmed by Nano LC-Nanospray QTQF mass spectroscopy. Membrane scaffold protein MSP1D1(-) ([41]) was purified as described previously ([25]). Tar4E L378C, Tar4Q L378C, Tar4EΔpp-6H L378C, and Tar4QΔpp-6H L378C were purified, incorporated into Nanodiscs at approximately one receptor dimer per disc, and biotinylated at L378C as described previously ([23], [42]). […] These activities were confirmed for representative samples used in our analyses. […]
(§2) Kinetics of CheB association and dissociation with Nanodisc-embedded Tar biotinylated at L378C were determined using biolayer interferometry ([22], [23]) as measured by a BLItz instrument (ForteBio, Menlo Park, CA, USA) and described in reference. […]

CheB methylesterase = settings: relative to phosphorylation; ref [8]; cited from earlier work
From the text: A high-activity form of the methylesterase/deamidase, designated CheB-P, is created by phosphorylation at a specific aspartyl residue in its N-terminal regulatory domain ([6][–][8]). However, activation is short-lived because of a high rate of autodephosphorylation ([7]), making it difficult to investigate binding of this activated form of the enzyme to chemoreceptors with confidence. Instead, we used a stable, functionally active mimic of phosphorylated CheB from Salmonella enterica subsp. enterica serovar Typhimurium (hereafter Salmonella) characterized by Saxl and coworkers ([26]). […] To investigate the role binding affinity might have in that activation, we measured binding of CheBC, a form of the methylesterase lacking the amino-terminal regulatory domain and linker, to pentapeptide-bearing and pentapeptide-lacking forms of Tar.

[2] = molecular target: Tar4EΔpp-6H L378C, E. coli Tar lacking the carboxyl-terminal pentapeptide, all-glutamyl form, homodimer in … (E. coli, UniProt P07017 1-553, L378C, biotinylated at L378C); test: SPR
[3] = molecular target: Tar4E L378C, E. coli aspartate chemoreceptor Tar, all-glutamyl form with carboxyl-terminal pentapeptide, … (E. coli, UniProt P07017 1-553, L378C, biotinylated at L378C); test: SPR
[4] = molecular target: Tar4Q L378C, E. coli aspartate chemoreceptor Tar, all-glutaminyl form with carboxyl-terminal pentapeptide, … (E. coli, UniProt P07017 1-553, L378C, biotinylated at L378C); test: SPR
[5] = molecular target: Tar4QΔpp-6H L378C, E. coli Tar lacking the carboxyl-terminal pentapeptide, all-glutaminyl form, homodimer in … (E. coli, UniProt P07017 1-553, L378C, biotinylated at L378C); test: SPR
Tar4EΔpp and Tar4QΔpp = test: CheB binding to pentapeptide-lacking Tar, 4E and 4Q (biolayer interferometry); set-up: species or system E. coli
Description: as §1
E. coli CheB and Salmonella CheB D56C/C207S/C309S and D56C/S164A/C207S/C309S were purified as described previously ([11]). CheBC (amino acids [aa] 153 to 349) was purified using the procedure of West et al. ([40]), except that Bio-Gel P-60, was not used. […] The extent of modification was 59% for the former and 60% for the latter determined by reversed phase chromatography essentially as described previously ([26]) and confirmed by Nano LC-Nanospray QTQF mass spectroscopy. […]
as §2

[6] = molecular target: Tar4E L378C, E. coli aspartate chemoreceptor Tar, all-glutamyl form with carboxyl-terminal pentapeptide, homodimer in Nanodiscs (E. coli) (UniProt P07017); test: BLI; BLItz; biotinylated Tar homodimers in Nanodiscs held on an avidin sensor tip, CheB or CheBC in solution; 50 mM Tris-HCl pH 7.5, 10% glycerol, 5 mM MgCl2, 50 mM KCl, 2% BSA, 2 mM DTT; global fit, apparent rate constants, KD calculated from kon and koff

Molecule	binding to chemoreceptors versus CheB-P* ([1]; compared with activated phosphorylation mimic CheB-P*)	preference for product form Tar4E versus substrate form Tar4Q ([1]; ratio of KD)	effect of presence or absence of pentapeptide on binding ([1]; with versus without NWETF)	activation by deletion of the regulatory domain (CheB methylesterase)	Kd [2]	Kd [3]	Kd [4]	Kd [5]	preference for substrate (4Q) versus product (4E) form (Tar4EΔpp and Tar4QΔpp; Tar4QΔpp versus Tar4EΔpp)	fold weaker than binding to pentapeptide / pentapeptide-bearing receptor (Tar4EΔpp and Tar4QΔpp; ratio of KD, Tar4Δpp versus pentapeptide-bearing)	Kd [6]
B1	bound much more weakly to chemoreceptors than the activated phosphorylation mimic CheB-P*	approximately twofold	no significant difference in binding in the presence or absence of pentapeptide	not as effectively as by phosphorylation	660 µM	590 µM	1400 µM	1200 µM	–	–	–
B2	–	–	–	–	–	–	–	–	not significantly different	approximately fourfold	230 µM
